One experiment has as its target S55746. Description: steady-state competition SPR. Particulars: BIMBH3 peptide immobilised on chip; BCL-2 analyte pre-combined with S55746 at 0, 20, 40, 60 nM.
In the next experiment the target is venetoclax. Description: steady-state competition SPR. Conditions: BIMBH3 peptide immobilised on chip; BCL-2 analyte pre-combined with venetoclax at 0, 20, 40, 60 nM.
The target of another experiment is BAXBH3 peptide. In words: SPR; direct binding; biotinylated BIMBH3 or BAXBH3 peptide immobilised on SA sensor chip, BCL-2 (0-63 nM) as analyte; HBS-EP (10 mM hepes pH 7.4, 150 mM sodium chloride, 3.4 mM EDTA, 0.005% tween 20, optionally 1 mM TCEP for BAXBH3), 25 °C; BIAcore 4000 or S200; 1:1 binding site kinetic model; BIMBH3-4A reference surface.
Chain of BAXBH3 peptide (Q07812 other isoform, or with tags, fused parts or gaps): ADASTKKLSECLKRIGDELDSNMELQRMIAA
In another experiment the target is BIMBH3 peptide. The experiment is described as above.
Chain of BIMBH3 peptide (O43521 141-166): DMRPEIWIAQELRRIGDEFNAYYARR

One may read the Ki as a dissociation constant, usually derived from enzyme kinetics or from competition with a known ligand. BCL-2 WT (from UniProt P10415) G101V: the Ki with S55746 worked out at 36 nM.
BCL-2 WT (from UniProt P10415) E152A: in the experiment with venetoclax, the Ki worked out at 0.027 nM.
The Kd is the concentration at which binding is half-saturated. Higher therefore signals weaker binding. As to “BCL-2 F104C (from UniProt P10415 1-239) (natural protein)”, the Kd was 4 nM with BAXBH3 peptide and 0.17 nM with BIMBH3 peptide.
Regarding “BCL-2 G101A (from UniProt P10415 1-239) (natural protein)”, the Kd in the experiment with BIMBH3 peptide turned out to be 0.23 nM.
Turning to BCL-2 WT (from UniProt P10415) F104C, the inhibitory constant (Ki) with venetoclax is 25.1 nM.
Turning to “BCL-2 WT (from UniProt P10415) G101V; E152A”, the Ki with S55746 came out at 5.3 nM; with venetoclax it was 0.002 nM.
As for BCL-2 WT (from UniProt P10415) G101A, in the experiment with venetoclax, the Ki turned out to be 0.11 nM.
Turning to “BCL-2 G101V/E152A double mutant (from UniProt P10415 1-239) (natural protein)”, the results for the Kd with BAXBH3 peptide and with BIMBH3 peptide were 5.5 nM and 0.63 nM, respectively.
The like results for “BCL-2 E152A (from UniProt P10415 1-239) (natural protein)” were, in that order, 3.6 nM and 0.36 nM.
